This note sets out measurements from patent US20260226173A1, “COMPOSITIONS INCLUDING ANTI-WT-1 ANTIBODIES & ANTIGEN BINDING FRAGMENTS AND USES THEREOF” (Memorial Sloan-Kettering Cancer Center, priority 2023, published 2026).

In this assay the target is HLA-A2-negative cells (HL-60, K562, primary AML 120B, normal cells of HLA-A2-negative donors). Briefly: cell-based or functional assay.

B1: ESK2 caTCR clone #34 (AbTCR), expressed on primary T cells (protein)
VH: QVQLVQSGTEVRKPGASLKVSCTTSGYIFTGYYIHWVRQVPGQGLEWMGWINPNSGVTEFAQGFQGRITMTRDTSTSTVYMELSRLTSDDTAVYYCAREGVWGYYDSWGQGTLVTVSS
VL: SSELTQDPAVSVALGQTVRITCQGDSLRSYYASWYQQKPGQAPVLVIYDKNNRPSGIPDRFSGSSSGNTASLTITGAQAEDEADYYCNSRDSSGNHHVVFGGGTKLTVLG
The molecule B1 registered a Reduction of CD33+ cells (%), AbTCR-CSR #34 T cells (with anti-CD33 CSR), primary AML 120B (HLA-A*02:01 -) of 2.3%.
